Target: PrPC, native state (recombinant human prion protein) (human, UniProt P04156 23-231)

Row | Binder | binding signal
1 | CTTACGGTGGGGCAATT (ssDNA, 5'-NH2) [Apt1] | 2.41 fluorescence ratio
2 | GTTTTGTTACAGTTCGTTTCTTTTCCCTGTCTTGTTTTGTTGTCT (ssDNA, 5'-biotin) [Apt2] | 2.41 fluorescence ratio
